{
  "source": "paper PMC12358912",
  "about": "“NIPBL and STAG1 enable loop extrusion by providing differential DNA–cohesin affinity” (Proceedings of the National Academy of Sciences of the …, 2024)",
  "binders": {"B1": {"name": "STAG1 (natural protein, human, UniProt Q8WVM7 1-1258, looked up)", "chain": "MITSELPVLQDSTNETTAHSDAGSELEETEVKGKRKRGRPGRPPSTNKKPRKSPGEKSRIEAGIRGAGRGRANGHPQQNGEGEPVTLFEVVKLGKSAMQSVVDDWIESYKQDRDIALLDLINFFIQCSGCRGTVRIEMFRNMQNAEIIRKMTEEFDEDSGDYPLTMPGPQWKKFRSNFCEFIGVLIRQCQYSIIYDEYMMDTVISLLTGLSDSQVRAFRHTSTLAAMKLMTALVNVALNLSIHQDNTQRQYEAERNKMIGKRANERLELLLQKRKELQENQDEIENMMNSIFKGIFVHRYRDAIAEIRAICIEEIGVWMKMYSDAFLNDSYLKYVGWTLHDRQGEVRLKCLKALQSLYTNRELFPKLELFTNRFKDRIVSMTLDKEYDVAVEAIRLVTLILHGSEEALSNEDCENVYHLVYSAHRPVAVAAGEFLHKKLFSRHDPQAEEALAKRRGRNSPNGNLIRMLVLFFLESELHEHAAYLVDSLWESSQELLKDWECMTELLLEEPVQGEEAMSDRQESALIELMVCTIRQAAEAHPPVGRGTGKRVLTAKERKTQIDDRNKLTEHFIITLPMLLSKYSADAEKVANLLQIPQYFDLEIYSTGRMEKHLDALLKQIKFVVEKHVESDVLEACSKTYSILCSEEYTIQNRVDIARSQLIDEFVDRFNHSVEDLLQEGEEADDDDIYNVLSTLKRLTSFHNAHDLTKWDLFGNCYRLLKTGIEHGAMPEQIVVQALQCSHYSILWQLVKITDGSPSKEDLLVLRKTVKSFLAVCQQCLSNVNTPVKEQAFMLLCDLLMIFSHQLMTGGREGLQPLVFNPDTGLQSELLSFVMDHVFIDQDEENQSMEGDEEDEANKIEALHKRRNLLAAFSKLIIYDIVDMHAAADIFKHYMKYYNDYGDIIKETLSKTRQIDKIQCAKTLILSLQQLFNELVQEQGPNLDRTSAHVSGIKELARRFALTFGLDQIKTREAVATLHKDGIEFAFKYQNQKGQEYPPPNLAFLEVLSEFSSKLLRQDKKTVHSYLEKFLTEQMMERREDVWLPLISYRNSLVTGGEDDRMSVNSGSSSSKTSSVRNKKGRPPLHKKRVEDESLDNTWLNRTDTMIQTPGPLPAPQLTSTVLRENSRPMGDQIQEPESEHGSEPDFLHNPQMQISWLGQPKLEDLNRKDRTGMNYMKVRTGVRHAVRGLMEEDAEPIFEDVMMSSRSQLEDMNEEFEDTMVIDLPPSRNRRERAELRPDFFDSAAIIEDDSGFGMPMF", "notes": "human STAG1, a HAWK subunit of cohesin; measured at 148 ± 2 kDa by mass photometry; also called Scc3"}},
  "key": {"[1]": {"target": "T1, SMC1/SMC3/SCC1 cohesin Trimer (UniProt Q14683 1-1233; Q9UQE7 1-1217; O60216 1-631)", "T1 construct": "SMC1 subunit of the cohesin Trimer; SMC3 subunit of the cohesin Trimer; kleisin SCC1 (also known as RAD21 or Mcd1) of the cohesin Trimer; also called the cohesin Trimer; Trimer (SMC1/SMC3/SCC); copies: + +", "T1 sequence (Q14683 whole entry, chain 1 of 3)": "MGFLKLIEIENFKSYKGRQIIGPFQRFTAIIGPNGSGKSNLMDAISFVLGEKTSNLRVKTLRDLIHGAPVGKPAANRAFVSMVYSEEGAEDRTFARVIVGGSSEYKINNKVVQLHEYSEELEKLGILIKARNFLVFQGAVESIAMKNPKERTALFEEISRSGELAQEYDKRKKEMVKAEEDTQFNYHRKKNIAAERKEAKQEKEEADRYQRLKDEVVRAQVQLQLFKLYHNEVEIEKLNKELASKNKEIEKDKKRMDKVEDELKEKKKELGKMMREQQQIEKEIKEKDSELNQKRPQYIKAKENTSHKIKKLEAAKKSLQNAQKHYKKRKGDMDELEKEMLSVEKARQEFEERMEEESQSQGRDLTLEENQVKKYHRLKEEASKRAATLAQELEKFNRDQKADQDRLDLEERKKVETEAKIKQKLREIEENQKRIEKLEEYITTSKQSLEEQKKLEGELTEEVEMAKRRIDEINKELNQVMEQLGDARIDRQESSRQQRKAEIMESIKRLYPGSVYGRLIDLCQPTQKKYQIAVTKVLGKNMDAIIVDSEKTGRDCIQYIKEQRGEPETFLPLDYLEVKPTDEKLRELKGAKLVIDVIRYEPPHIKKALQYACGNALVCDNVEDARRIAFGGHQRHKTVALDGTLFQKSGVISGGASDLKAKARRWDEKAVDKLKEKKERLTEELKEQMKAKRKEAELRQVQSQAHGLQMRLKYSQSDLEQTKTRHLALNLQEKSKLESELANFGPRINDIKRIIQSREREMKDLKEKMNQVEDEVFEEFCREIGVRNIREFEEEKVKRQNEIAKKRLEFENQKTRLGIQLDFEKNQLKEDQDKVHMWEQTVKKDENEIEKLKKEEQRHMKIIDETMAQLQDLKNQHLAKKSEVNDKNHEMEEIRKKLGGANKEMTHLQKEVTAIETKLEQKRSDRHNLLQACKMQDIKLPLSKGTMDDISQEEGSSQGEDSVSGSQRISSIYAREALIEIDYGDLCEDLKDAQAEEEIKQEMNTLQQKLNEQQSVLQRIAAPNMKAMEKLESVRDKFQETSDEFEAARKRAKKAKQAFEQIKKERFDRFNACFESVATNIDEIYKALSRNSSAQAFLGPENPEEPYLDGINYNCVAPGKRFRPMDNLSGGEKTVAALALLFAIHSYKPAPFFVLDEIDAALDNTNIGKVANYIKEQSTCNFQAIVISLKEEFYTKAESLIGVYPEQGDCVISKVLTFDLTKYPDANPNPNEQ", "T1 sequence (Q9UQE7 whole entry, chain 2 of 3)": "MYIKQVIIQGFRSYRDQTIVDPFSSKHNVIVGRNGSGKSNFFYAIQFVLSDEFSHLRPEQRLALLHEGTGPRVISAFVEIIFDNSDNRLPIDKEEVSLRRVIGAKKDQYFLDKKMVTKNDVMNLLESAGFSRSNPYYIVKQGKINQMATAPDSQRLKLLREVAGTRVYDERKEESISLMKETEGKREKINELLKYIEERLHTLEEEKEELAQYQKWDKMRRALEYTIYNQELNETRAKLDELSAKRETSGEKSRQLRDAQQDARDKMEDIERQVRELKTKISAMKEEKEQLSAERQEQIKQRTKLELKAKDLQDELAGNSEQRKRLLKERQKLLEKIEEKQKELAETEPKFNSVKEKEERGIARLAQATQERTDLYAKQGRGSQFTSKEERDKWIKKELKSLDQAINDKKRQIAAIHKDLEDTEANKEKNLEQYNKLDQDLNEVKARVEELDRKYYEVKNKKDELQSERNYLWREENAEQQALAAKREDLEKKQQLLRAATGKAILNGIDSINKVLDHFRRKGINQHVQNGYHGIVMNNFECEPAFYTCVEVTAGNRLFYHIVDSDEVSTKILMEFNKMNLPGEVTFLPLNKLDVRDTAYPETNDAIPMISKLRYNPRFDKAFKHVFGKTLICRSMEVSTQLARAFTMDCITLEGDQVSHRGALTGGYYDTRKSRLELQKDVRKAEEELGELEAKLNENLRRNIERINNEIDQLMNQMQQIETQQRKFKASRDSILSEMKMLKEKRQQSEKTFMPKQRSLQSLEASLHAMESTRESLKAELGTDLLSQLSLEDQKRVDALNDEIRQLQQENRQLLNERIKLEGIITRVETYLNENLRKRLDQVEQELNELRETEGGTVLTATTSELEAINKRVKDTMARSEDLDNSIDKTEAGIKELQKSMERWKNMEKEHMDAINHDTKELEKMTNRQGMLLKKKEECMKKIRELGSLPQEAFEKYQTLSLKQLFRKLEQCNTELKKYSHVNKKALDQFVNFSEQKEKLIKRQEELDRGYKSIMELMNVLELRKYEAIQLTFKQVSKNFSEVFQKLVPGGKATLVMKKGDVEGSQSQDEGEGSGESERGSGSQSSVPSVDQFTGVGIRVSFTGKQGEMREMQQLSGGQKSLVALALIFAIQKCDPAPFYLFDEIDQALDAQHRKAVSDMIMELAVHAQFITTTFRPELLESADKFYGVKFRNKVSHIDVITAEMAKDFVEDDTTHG", "T1 sequence (O60216 whole entry, chain 3 of 3)": "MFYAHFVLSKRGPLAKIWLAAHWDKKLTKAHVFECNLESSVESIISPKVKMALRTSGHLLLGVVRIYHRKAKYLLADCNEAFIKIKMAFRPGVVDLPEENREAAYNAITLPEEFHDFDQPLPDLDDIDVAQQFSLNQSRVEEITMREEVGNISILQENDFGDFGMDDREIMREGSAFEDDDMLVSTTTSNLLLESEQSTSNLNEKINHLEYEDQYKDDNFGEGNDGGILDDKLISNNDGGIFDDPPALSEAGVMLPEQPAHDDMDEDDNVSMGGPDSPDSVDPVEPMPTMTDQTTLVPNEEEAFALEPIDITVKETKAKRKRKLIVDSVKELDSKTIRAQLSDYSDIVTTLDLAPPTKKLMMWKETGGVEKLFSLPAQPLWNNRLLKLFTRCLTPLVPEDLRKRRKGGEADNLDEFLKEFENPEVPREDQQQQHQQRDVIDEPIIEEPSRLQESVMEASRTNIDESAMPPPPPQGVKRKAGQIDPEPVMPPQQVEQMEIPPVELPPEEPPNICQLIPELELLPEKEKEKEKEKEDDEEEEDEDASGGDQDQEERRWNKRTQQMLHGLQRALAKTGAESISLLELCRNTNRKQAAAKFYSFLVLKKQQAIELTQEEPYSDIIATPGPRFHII", "assay": "mass photometry; in solution; titration at constant cohesin Trimer (50 nM total protein, 12.6 ± 0.9 nM effective Trimer), STAG1 3 to 30 nM, six concentrations with 3 technical repeats each; incubated to equilibrium; molar fraction of the complex fitted to the Hill equation", "details": "both partners purified"}, "[2]": {"target": "T1, SMC1/SMC3/SCC1 cohesin Trimer", "assay": "mass photometry; in solution; KD from evaluating the individual mass distributions of the STAG1 and cohesin Trimer mixtures directly (single-shot)", "details": "both partners purified"}},
  "data": [
    {"binder": "B1", "values": [
      {"measurement": "Kd", "setting": "[1]", "result": "6.2 ± 0.7", "unit": "nM"},
      {"measurement": "Kd", "setting": "[2]", "result": "5.4 ± 1.7", "unit": "nM"}
    ]}
  ]
}
